Experimental findings from publication PMC12062419 (2025) are described below.

For orientation: Kd means the equilibrium constant for the complex coming apart.

In this experiment the target is T1, human migfilin (residues 1-85) Ser12His (human, UniProt Q8WUP2 1-85, Ser12His).
T1 sequence: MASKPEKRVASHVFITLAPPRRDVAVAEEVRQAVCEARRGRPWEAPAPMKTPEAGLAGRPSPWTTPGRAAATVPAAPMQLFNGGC
The experiment can be described thus: NMR.

B1: GST-tagged human filamin A domain 21 (FLNa21) labelled with 4-trifluoromethyl-L-phenylalanine at position 2274 (domain or fragment)
chain: GGAHKVRAGGPGLERAEAGVPAEFSIWTREAGAGGLAIFVEGPSKAEISFEDRKDGSCGVAYVVQEPGDYEVSVKFNEEHIPDSPFVVPVASP
modifications: 4-trifluoromethyl-L-phenylalanine (tfmF) at position 2274
The molecule B1 yielded a Kd of 4.9 µM.
